Laboratory results published in the supplement of paper PMC9170038.

Tested on: MS2 coat protein
Experiment: apparent KD of MS2 coat protein; designed switch direction (-1 OFF switch, 1 ON switch): 1; higher = weaker reporter binding
In short: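 Designed RNA switches with common flanks were made on Illumina chips by stalled E. coli RNA polymerase. Titration with SNAP-549-labelled MS2 coat protein doubled from 0.7 or 1.5 nM up to 3 µM. Apparent KD is each design's median over clusters after curve-fitting normalised fluorescence.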

[1] = input ligand: microRNA oligo, concentration not stated
[2] = Eterna round: R95, input ligand: FMN 200 uM
[3] = Eterna round: R95, input ligand: microRNA oligo, concentration not stated
[4] = Eterna round: R95, input ligand: none

Sequence | apparent KD of MS2 coat protein (input ligand: FMN 200 uM) [nM] | apparent KD of MS2 coat protein [1] [nM] | apparent KD of MS2 coat protein (input ligand: none) [nM] | apparent KD of MS2 coat protein [2] [nM] | apparent KD of MS2 coat protein [3] [nM] | apparent KD of MS2 coat protein [4] [nM]
GGUCGGACCUACAUGAGGAUCACCCAUGUUCCGGAAACGGCAUAGGAUAUCUGUCCGAAAAGGUCAGAGAAGGGUGAACCGACC [Fiskers NG3ss - 74] (Eterna round: R96, puzzle: Same State NG 3) | 145 | 160 | 162 | – | – | –
ACAUAGGUUUCAGGAUAUGGGUAAAUUCCCUACAUGAGGAUCACCCAUGUCCGUAGGGAUAACAUCCAGAAGGGAAGCCACAUA [MOD3 Eternabot Solution 1 (Score 87.5)] (Eterna round: R96, puzzle: Same State NG 2) | 175 | 144 | 221 | – | – | –
GUGGUGAAUUAAGGAUAUCGAGUCAAGAUGUUAAACAUGAGGAUCACCCAUGUGGGUUGCGGUAUCGAGAAGGUAAUUUACGGG [salish99_SSNG2_r04_506] (Eterna round: R96, puzzle: Same State NG 2) | 17.3 | 20.1 | 30.3 | – | – | –
GCCAUCGCAUGAGGAUAUGGCACCGUUUCGGUGCCAGAAGGCAUGUCAAAUGACAUGAGGAUCACCCAUGUAGUUAAGAUGGCA [JL Fiskers NG1ss - 33 mod 9] (Eterna round: R96, puzzle: Same State NG 1) | 29.2 | 417 | 542 | – | – | –
UGGUACAUGGGAGGAUAUCUCAUGGAGACAUGAGGAUCACCCAUGUAGUUGGACCGGAAACGGUGAGAGAAGGCCCAUGUACCU [JL SSNG1 3.72] (Eterna round: R96, puzzle: Same State NG 2) | 30.2 | 52.8 | 59.6 | – | – | –
UGAGGUGUAGCAGGAUAUGCCGUCAGUCACCCGGCAGAAGGGCUGAAAGCAUGCUCGCACAUGAGGAUCACCCAUGUCACAGUG [Eternabot solution 17] (Eterna round: R96, puzzle: Same State NG 1) | 48.9 | 37.7 | 44 | – | – | –
GAGUGGUAGAGAGGAUAUGCAUUGUUAUUAAAUGCAGAAGGUUUUAACAUGAGGAUCACCCAUGUAGGACUAUUCCUGUGUUUC [Parity 66 - Jieux - Same State NG 1] (Eterna round: R96, puzzle: Same State NG 1) | – | 10.8 | – | – | – | –
UCUUGGUUUUUGCUCGUUUUUUGUGUUGAACAUGAGGAUCACCCAUGUAUUGUACGGUCCAGUUUAAUAGUGGUCCG [JMF 31] (puzzle: Sensor for hsa-mir-208a) | – | – | – | 25.8 | 13.4 | 23.8
UGAAUAAUGAUAGGAUAUACAUGAGGAAUCCUCGUAGAAGGAUCAUGACAUGAGGAUCACCCAUGUAGCGCUCGAAAGAGCGCA [Mat - Same State NG 1 - JL mod - D52] (Eterna round: R96, puzzle: Same State NG 1) | 186 | 54.9 | 232 | – | – | –
CUCAAAACAAGUUGCAGUGUUCGUCUUUCACAUGAGGAUCACCCAUGUAAUAGCCCAGUGGAAGCGCUCGGGCCACC [Ditixe] (puzzle: Sensor for hsa-mir-208a) | – | – | – | 55.3 | 28.9 | 47.4
CUCACAUGGGUAGGAUAUCUAGGAUAUGGGAAAGACUAAGUCUGUAGGUCACCUAACCCAGAUGGAGAGAAGGACCCAACACUC [pwkr ssNG2 2FMN + F9.37] (Eterna round: R96, puzzle: Same State NG 2) | 32.4 | 7.81 | 9.82 | – | – | –
GAGGGACAGACCAACAUGAGGAUCACCCAUGUCCUCGCUGGUCAGGAUAUCCCGCCAACAGGCGAGGAGAAGGGACGGUGAACC (Eterna round: R96, puzzle: Same State NG 3) | 1110 | 425 | 724 | – | – | –
GUUACAUGAGGAUCACCCAUGUAUGUGUGGGAGUAAGUGUCUUAGGAUAUCUAUUAUUUUAAUUAAGAGAAGGAAGAUUGUUGU [JMF's solution 20] (Eterna round: R96, puzzle: Same State NG 3) | 98.6 | 113 | 122 | – | – | –
AGAAAACAUGAGGAUCACCCAUGUAUAGUGAAUACAGGAUAUCACCGACGGAAUAAUUGGUGAGAAGGGUGAUCGC [Ceaqu] (puzzle: Same State 1) | – | – | – | 21.2 | 11.8 | 23.2
CGAUGAUACUUAGGAAGAAGAGUUGAAGUACAUGAGGAUCACCCAUGUCAGAGCUUUUUGCUCGUCAUGAACAGGAA [JR_SHM208a_Sub006] (puzzle: Sensor for hsa-mir-208a) | – | – | – | 47.9 | 27.7 | 52.9
AAUCGUUUGAUAGGAUAUCGCUAUACAUGAGGAUCACCCAUGUUUACCACGCUGGUUUUUCGUACCGAGAAGGAUUCUGAUGAU [JL JR sub007 mod 4] (Eterna round: R96, puzzle: Same State NG 2) | 36 | 25.4 | 36.1 | – | – | –
GCUCGUAUCACGACCGACAUGAGGAUCACCCAUGUAUGUUGGUAGGAUAUCUAUAUUAAGGAUAUAGAGAAGGGCCGAACGAGC [SameState NG3 #14] (Eterna round: R96, puzzle: Same State NG 3) | 23.5 | 24.8 | 30.1 | – | – | –
UUAAUUUACUGAGGAUAUCGUGUCGUCUGAUUUGACAUGAGGAUCACCCAUGUGUGAAGUGGUAUCGAGAAGGCAGUUUUCUUA [JR_SSNG2_Sub027] (Eterna round: R96, puzzle: Same State NG 2) | 24.2 | 42.6 | 75.5 | – | – | –
AAUUAAGAUCGAGGAUAUCACGUCGAUUAGACGUGAGAAGGCGAUCAUAACAUGAGGAUCACCCAUGUAUUACAUGAAUUAAUU [SSNG1/4-B2] (Eterna round: R96, puzzle: Same State NG 1) | 33.4 | 26.7 | 36.6 | – | – | –
GCUAGAAAUAAAGCCAACAUGAGGAUCACCCAUGUAUGUUGGCAGGAUAUCGUUUGCAAAGCAAACGAGAAGGGCUAAACUAGC [Mat - Same State NG 3 - JL Mod - D5] (Eterna round: R96, puzzle: Same State NG 3) | 141 | 138 | 147 | – | – | –
GAGCCAGUCCGAGGAUAUUCAUAUUAAAUACAUGAGGAUCACCCAUGUAGGCUCAGAGAGCCUUGGGAGAAGGCGGACUGGCUC [Xeonanisa>>1] (Eterna round: R96, puzzle: Same State NG 2) | 24.9 | 63.6 | 113 | – | – | –
AGUCCAGCCUGAGCUGGACAGAAGCAUGUACAUGAGGAUCACCCAUGUCAUGUACAAGCUUUUUGCUCGUCUUAAUA [Zipper 49 - 3] (puzzle: Sensor for hsa-mir-208a) | – | – | – | 459 | 16.2 | 641
UUGCUCGUGUGAGGAUAUGCCGCCGUUUCGGCUGCAGAAGGUACUCUUGUACAUGAGGAUCACCCAUGUCUCUGUUGUUUCGUG [salish99_SSNG1_r04_938] (Eterna round: R96, puzzle: Same State NG 1) | – | 43.6 | – | – | – | –
GGUAGGUUACUACCAAACUACAUGAGGAUCACCCAUGUGUGGGAGGAUAUGGUACCUAUUUGGUACCAGAAGGUCCAAUUAAUU [Fiskers NG3ss - 6] (Eterna round: R96, puzzle: Same State NG 3) | 108 | 106 | 124 | – | – | –
UAGAAACAUGAGGAUCACCCAUGUGUCAAAGACAUAGGAUAUCAUAACUGGCGCCAGUUAUGAGAAGGGUGGUAAA [Belezaqu] (puzzle: Same State 1) | – | – | – | 33.8 | 52.6 | 170
ACUUACAUGGUAGGAUAUGUCCGUCUAGCUGACACAGAAGGGCCAAGCUCUACGACAUGAGGAUCACCCAUGUGAAGGAGAGGC [Eternabot solution 49] (Eterna round: R96, puzzle: Same State NG 1) | 15.1 | 13.6 | 18.3 | – | – | –
CGUCCGGCCUGUGCUGGCCGGUGGCUUGUACAUGAGGAUCACCCAUGUUCUUGUGCUGGCUGUUUGCUCGUCUUGUG [salish99_mir208a_r3_021] (puzzle: Sensor for hsa-mir-208a) | – | – | – | 50.2 | 22.6 | 61.2
